We go through nine molecules from patent US20190233495A1 (Sanofi, published 2019).

Non-standard residues stand in square brackets, D forms with d. 1Nal = N[C@@H](Cc1cccc2ccccc12)C(=O)O; Nle = CCCC[C@H](N)C(=O)O; Aib = CC(C)(N)C(=O)O

The labels stand for the following.
B1: SEQ ID NO: 29 (peptide)
peptide: Ac-LEGREKVRAK(Ac)I[Aib][Aib]EG[Nle]ST[1Nal]S[Aib]RKK(Ac)-NH2
SMILES: CCCC[C@H](NC(=O)CNC(=O)[C@H](CCC(=O)O)NC(=O)C(C)(C)NC(=O)C(C)(C)NC(=O)[C@@H](NC(=O)[C@H](CCCCNC(C)=O)NC(=O)[C@H](C)NC(=O)[C@H](CCCNC(=N)N)NC(=O)[C@@H](NC(=O)[C@H](CCCCN)NC(=O)[C@H](CCC(=O)O)NC(=O)[C@H](CCCNC(=N)N)NC(=O)CNC(=O)[C@H](CCC(=O)O)NC(=O)[C@H](CC(C)C)NC(C)=O)C(C)C)[C@@H](C)CC)C(=O)N[C@@H](CO)C(=O)N[C@H](C(=O)N[C@@H](Cc1cccc2ccccc12)C(=O)N[C@@H](CO)C(=O)NC(C)(C)C(=O)N[C@@H](CCCNC(=N)N)C(=O)N[C@@H](CCCCN)C(=O)N[C@@H](CCCCNC(C)=O)C(N)=O)[C@@H](C)O
B2: SEQ ID NO: 31 (peptide)
peptide: Ac-LEGREKVRAK(Ac)I[Aib][Aib]EG[Nle]STWS[Aib]RKQ-NH2
SMILES: CCCC[C@H](NC(=O)CNC(=O)[C@H](CCC(=O)O)NC(=O)C(C)(C)NC(=O)C(C)(C)NC(=O)[C@@H](NC(=O)[C@H](CCCCNC(C)=O)NC(=O)[C@H](C)NC(=O)[C@H](CCCNC(=N)N)NC(=O)[C@@H](NC(=O)[C@H](CCCCN)NC(=O)[C@H](CCC(=O)O)NC(=O)[C@H](CCCNC(=N)N)NC(=O)CNC(=O)[C@H](CCC(=O)O)NC(=O)[C@H](CC(C)C)NC(C)=O)C(C)C)[C@@H](C)CC)C(=O)N[C@@H](CO)C(=O)N[C@H](C(=O)N[C@@H](Cc1c[nH]c2ccccc12)C(=O)N[C@@H](CO)C(=O)NC(C)(C)C(=O)N[C@@H](CCCNC(=N)N)C(=O)N[C@@H](CCCCN)C(=O)N[C@@H](CCC(N)=O)C(N)=O)[C@@H](C)O
B3: SEQ ID NO: 35 (peptide)
peptide: Ac-LEGREKVRAQI[Aib][Aib]EGQSTWS[Aib]RKK-NH2
SMILES: CC[C@H](C)[C@H](NC(=O)[C@H](CCC(N)=O)NC(=O)[C@H](C)NC(=O)[C@H](CCCNC(=N)N)NC(=O)[C@@H](NC(=O)[C@H](CCCCN)NC(=O)[C@H](CCC(=O)O)NC(=O)[C@H](CCCNC(=N)N)NC(=O)CNC(=O)[C@H](CCC(=O)O)NC(=O)[C@H](CC(C)C)NC(C)=O)C(C)C)C(=O)NC(C)(C)C(=O)NC(C)(C)C(=O)N[C@@H](CCC(=O)O)C(=O)NCC(=O)N[C@@H](CCC(N)=O)C(=O)N[C@@H](CO)C(=O)N[C@H](C(=O)N[C@@H](Cc1c[nH]c2ccccc12)C(=O)N[C@@H](CO)C(=O)NC(C)(C)C(=O)N[C@@H](CCCNC(=N)N)C(=O)N[C@@H](CCCCN)C(=O)N[C@@H](CCCCN)C(N)=O)[C@@H](C)O
B4: SEQ ID NO: 32 (peptide)
peptide: Ac-LEGREKVRAK(Ac)I[Aib][Aib]EG[Nle]STWS[Aib]RKL-NH2
SMILES: CCCC[C@H](NC(=O)CNC(=O)[C@H](CCC(=O)O)NC(=O)C(C)(C)NC(=O)C(C)(C)NC(=O)[C@@H](NC(=O)[C@H](CCCCNC(C)=O)NC(=O)[C@H](C)NC(=O)[C@H](CCCNC(=N)N)NC(=O)[C@@H](NC(=O)[C@H](CCCCN)NC(=O)[C@H](CCC(=O)O)NC(=O)[C@H](CCCNC(=N)N)NC(=O)CNC(=O)[C@H](CCC(=O)O)NC(=O)[C@H](CC(C)C)NC(C)=O)C(C)C)[C@@H](C)CC)C(=O)N[C@@H](CO)C(=O)N[C@H](C(=O)N[C@@H](Cc1c[nH]c2ccccc12)C(=O)N[C@@H](CO)C(=O)NC(C)(C)C(=O)N[C@@H](CCCNC(=N)N)C(=O)N[C@@H](CCCCN)C(=O)N[C@@H](CC(C)C)C(N)=O)[C@@H](C)O
B5: SEQ ID NO: 34 (peptide)
peptide: Ac-LEGREKVRK(Ac)[Aib]I[Aib][Aib]EG[Nle]STWS[Aib]RKK-NH2
SMILES: CCCC[C@H](NC(=O)CNC(=O)[C@H](CCC(=O)O)NC(=O)C(C)(C)NC(=O)C(C)(C)NC(=O)[C@@H](NC(=O)C(C)(C)NC(=O)[C@H](CCCCNC(C)=O)NC(=O)[C@H](CCCNC(=N)N)NC(=O)[C@@H](NC(=O)[C@H](CCCCN)NC(=O)[C@H](CCC(=O)O)NC(=O)[C@H](CCCNC(=N)N)NC(=O)CNC(=O)[C@H](CCC(=O)O)NC(=O)[C@H](CC(C)C)NC(C)=O)C(C)C)[C@@H](C)CC)C(=O)N[C@@H](CO)C(=O)N[C@H](C(=O)N[C@@H](Cc1c[nH]c2ccccc12)C(=O)N[C@@H](CO)C(=O)NC(C)(C)C(=O)N[C@@H](CCCNC(=N)N)C(=O)N[C@@H](CCCCN)C(=O)N[C@@H](CCCCN)C(N)=O)[C@@H](C)O
B6: SEQ ID NO: 28 (peptide)
peptide: Ac-LEGREKVRAK(Ac)I[Aib][Aib]EG[Nle]STWS[Aib]RKK(Ac)K(Ac)-NH2
SMILES: CCCC[C@H](NC(=O)CNC(=O)[C@H](CCC(=O)O)NC(=O)C(C)(C)NC(=O)C(C)(C)NC(=O)[C@@H](NC(=O)[C@H](CCCCNC(C)=O)NC(=O)[C@H](C)NC(=O)[C@H](CCCNC(=N)N)NC(=O)[C@@H](NC(=O)[C@H](CCCCN)NC(=O)[C@H](CCC(=O)O)NC(=O)[C@H](CCCNC(=N)N)NC(=O)CNC(=O)[C@H](CCC(=O)O)NC(=O)[C@H](CC(C)C)NC(C)=O)C(C)C)[C@@H](C)CC)C(=O)N[C@@H](CO)C(=O)N[C@H](C(=O)N[C@@H](Cc1c[nH]c2ccccc12)C(=O)N[C@@H](CO)C(=O)NC(C)(C)C(=O)N[C@@H](CCCNC(=N)N)C(=O)N[C@@H](CCCCN)C(=O)N[C@@H](CCCCNC(C)=O)C(=O)N[C@@H](CCCCNC(C)=O)C(N)=O)[C@@H](C)O
B7: SEQ ID NO: 26 (peptide)
peptide: Ac-LEGREKVRAK(Ac)I[Aib][Aib]EG[Nle]STWSK(Ac)RKKK(Ac)-NH2
SMILES: CCCC[C@H](NC(=O)CNC(=O)[C@H](CCC(=O)O)NC(=O)C(C)(C)NC(=O)C(C)(C)NC(=O)[C@@H](NC(=O)[C@H](CCCCNC(C)=O)NC(=O)[C@H](C)NC(=O)[C@H](CCCNC(=N)N)NC(=O)[C@@H](NC(=O)[C@H](CCCCN)NC(=O)[C@H](CCC(=O)O)NC(=O)[C@H](CCCNC(=N)N)NC(=O)CNC(=O)[C@H](CCC(=O)O)NC(=O)[C@H](CC(C)C)NC(C)=O)C(C)C)[C@@H](C)CC)C(=O)N[C@@H](CO)C(=O)N[C@H](C(=O)N[C@@H](Cc1c[nH]c2ccccc12)C(=O)N[C@@H](CO)C(=O)N[C@@H](CCCCNC(C)=O)C(=O)N[C@@H](CCCNC(=N)N)C(=O)N[C@@H](CCCCN)C(=O)N[C@@H](CCCCN)C(=O)N[C@@H](CCCCNC(C)=O)C(N)=O)[C@@H](C)O
B8: SEQ ID NO: 33 (peptide)
peptide: Ac-LEGREKVRK(Ac)QI[Aib][Aib]EG[Nle]STWS[Aib]RKK-NH2
SMILES: CCCC[C@H](NC(=O)CNC(=O)[C@H](CCC(=O)O)NC(=O)C(C)(C)NC(=O)C(C)(C)NC(=O)[C@@H](NC(=O)[C@H](CCC(N)=O)NC(=O)[C@H](CCCCNC(C)=O)NC(=O)[C@H](CCCNC(=N)N)NC(=O)[C@@H](NC(=O)[C@H](CCCCN)NC(=O)[C@H](CCC(=O)O)NC(=O)[C@H](CCCNC(=N)N)NC(=O)CNC(=O)[C@H](CCC(=O)O)NC(=O)[C@H](CC(C)C)NC(C)=O)C(C)C)[C@@H](C)CC)C(=O)N[C@@H](CO)C(=O)N[C@H](C(=O)N[C@@H](Cc1c[nH]c2ccccc12)C(=O)N[C@@H](CO)C(=O)NC(C)(C)C(=O)N[C@@H](CCCNC(=N)N)C(=O)N[C@@H](CCCCN)C(=O)N[C@@H](CCCCN)C(N)=O)[C@@H](C)O
B9: SEQ ID NO: 27 (peptide)
peptide: Ac-LEGREKVRAK(Ac)I[Aib][Aib]EG[Nle]STWS[Aib]RKK(Ac)K-NH2
SMILES: CCCC[C@H](NC(=O)CNC(=O)[C@H](CCC(=O)O)NC(=O)C(C)(C)NC(=O)C(C)(C)NC(=O)[C@@H](NC(=O)[C@H](CCCCNC(C)=O)NC(=O)[C@H](C)NC(=O)[C@H](CCCNC(=N)N)NC(=O)[C@@H](NC(=O)[C@H](CCCCN)NC(=O)[C@H](CCC(=O)O)NC(=O)[C@H](CCCNC(=N)N)NC(=O)CNC(=O)[C@H](CCC(=O)O)NC(=O)[C@H](CC(C)C)NC(C)=O)C(C)C)[C@@H](C)CC)C(=O)N[C@@H](CO)C(=O)N[C@H](C(=O)N[C@@H](Cc1c[nH]c2ccccc12)C(=O)N[C@@H](CO)C(=O)NC(C)(C)C(=O)N[C@@H](CCCNC(=N)N)C(=O)N[C@@H](CCCCN)C(=O)N[C@@H](CCCCNC(C)=O)C(=O)N[C@@H](CCCCN)C(N)=O)[C@@H](C)O

The target of the assay is T1, RXFP1 receptor (UniProt Q9HBX9 1-757, limits assumed).
T1 sequence (looked up): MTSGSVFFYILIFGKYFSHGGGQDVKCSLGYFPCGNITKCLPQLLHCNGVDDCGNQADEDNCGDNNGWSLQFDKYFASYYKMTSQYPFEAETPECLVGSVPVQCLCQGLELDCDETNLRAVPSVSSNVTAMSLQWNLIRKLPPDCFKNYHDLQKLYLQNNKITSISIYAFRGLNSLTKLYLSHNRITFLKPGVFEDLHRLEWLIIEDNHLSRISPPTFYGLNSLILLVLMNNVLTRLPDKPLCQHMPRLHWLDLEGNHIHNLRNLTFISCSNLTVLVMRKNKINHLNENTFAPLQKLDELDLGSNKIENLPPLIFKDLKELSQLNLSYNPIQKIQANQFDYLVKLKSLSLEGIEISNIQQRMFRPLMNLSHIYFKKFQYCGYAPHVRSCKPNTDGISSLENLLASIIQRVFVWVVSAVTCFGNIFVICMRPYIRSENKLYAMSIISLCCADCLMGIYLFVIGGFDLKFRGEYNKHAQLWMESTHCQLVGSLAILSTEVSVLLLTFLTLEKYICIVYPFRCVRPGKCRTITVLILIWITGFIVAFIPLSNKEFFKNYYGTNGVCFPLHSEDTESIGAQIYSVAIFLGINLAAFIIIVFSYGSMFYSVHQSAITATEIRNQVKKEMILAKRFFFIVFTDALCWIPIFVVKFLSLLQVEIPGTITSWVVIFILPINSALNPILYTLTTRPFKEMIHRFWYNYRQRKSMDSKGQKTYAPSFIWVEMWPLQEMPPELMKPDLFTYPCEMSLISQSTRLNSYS
The assay is described as follows: cell-based or functional assay.
For the molecule B1, the “cAMP assay in OVCAR 5 cells EC50” value was 0.0138 µM and the “cAMP assay in OVCAR 5 cells Emax” value amounted to 98%.
Consider B2, for which the “cAMP assay in OVCAR 5 cells EC50” value worked out at 0.0517 µM and the “cAMP assay in OVCAR 5 cells Emax” value stood at 96%.
Take B3: the “cAMP assay in OVCAR 5 cells EC50” value amounted to 0.0158 µM.
As for B4, the “cAMP assay in OVCAR 5 cells EC50” value was 0.0386 µM and the “cAMP assay in OVCAR 5 cells Emax” value amounted to 95%.
Take B5: the “cAMP assay in OVCAR 5 cells EC50” value came to 0.0687 µM and the “cAMP assay in OVCAR 5 cells Emax” value was 96%.
As for B6, the “cAMP assay in OVCAR 5 cells EC50” value was determined as 0.0225 µM and the “cAMP assay in OVCAR 5 cells Emax” value was determined as 92%.
As to B7, the “cAMP assay in OVCAR 5 cells EC50” value is 0.0145 µM and the “cAMP assay in OVCAR 5 cells Emax” value was determined as 100%.
Consider B8, for which the “cAMP assay in OVCAR 5 cells EC50” value amounted to 0.0863 µM and the “cAMP assay in OVCAR 5 cells Emax” value is 105%.
For B9, the “cAMP assay in OVCAR 5 cells EC50” value worked out at 0.0095 µM and the “cAMP assay in OVCAR 5 cells Emax” value is 95%.
